# Positions of bridges follow the written chain, without caps; N, C: chain ends.
# B1: aML5 (peptide)
# peptide: {CH2CO}-YISWNEFNSPNWRFITCG-NH2
# modifications: thioether N-17
# SMILES: CC[C@H](C)[C@@H]1NC(=O)[C@H](Cc2ccc(O)cc2)NC(=O)CSC[C@@H](C(=O)NCC(N)=O)NC(=O)[C@H]([C@@H](C)O)NC(=O)[C@H]([C@@H](C)CC)NC(=O)[C@H](Cc2ccccc2)NC(=O)[C@H](CCCNC(=N)N)NC(=O)[C@H](Cc2c[nH]c3ccccc23)NC(=O)[C@H](CC(N)=O)NC(=O)[C@@H]2CCCN2C(=O)[C@H](CO)NC(=O)[C@H](CC(N)=O)NC(=O)[C@H](Cc2ccccc2)NC(=O)[C@H](CCC(=O)O)NC(=O)[C@H](CC(N)=O)NC(=O)[C@H](Cc2c[nH]c3ccccc23)NC(=O)[C@H](CO)NC1=O
# notes: thioether macrocycle selected by RaPID from the L-library against human Met ectodomain; also called anti-Met L-library macrocycle 5; source: synthetic peptide (Fmoc SPPS, RP-HPLC purified)
# B2: aML5-Lin (peptide)
# peptide: Ac-YISWNEFNSPNWRFITAG-NH2
# notes: linear form of aML5, Ala in place of the ring-closing Cys; also called linear counterpart of aML5; source: synthetic peptide
# How the values were obtained:
# c-Ret = test: Transactivation of c-Ret; assay type: cell-based, human
# Method: EHMES-1 cells were cultured in a 12-well plate until they were 80%–90% confluent. The cells were left untreated or stimulated with hHGF or aML5-PEG3 in the presence or absence of the indicated concentrations of the specific Met kinase inhibitor, SU11274 (Calbiochem). Cells were then lysed with 100 μl of Laemmli sample buffer. Lysates were sonicated and centrifuged for 15 min at 15,000 g. Supernatants were analysed by SDS–PAGE gel electrophoresis and western blotting, using anti-phosphorylated Met (Y1234/1235) mAb or anti-phosphorylated c-Ret (Y905) antibody.
# human Met ectodomain [1] = target: T1, human Met ectodomain (Homo sapiens, UniProt P08581); test: SPR analysis of macrocycle binding to immobilized human Met ectodomain-Fc
# T1 construct: human Met ectodomain-Fc chimera was immobilized; purchased Sino Biological Inc
# Method: (§1) The binding constants of the macrocycles to the Met ectodomain were determined by SPR analysis using a Biacore T200 machine (GE Healthcare). The running buffer was HBS EP+ buffer (10 mM Hepes pH 7.4, 150 mM NaCl, 3 mM EDTA and 0.05% (v/v) SurfactantP20) containing 0.1% DMSO. To assess the interaction between human Met and the macrocycles, human Met ectodomain-Fc chimera was immobilized to a surface density of 1,200–1,600 response units (RUs) on a CM5 sensor chip using a human antibody capture kit (GE Healthcare). Macrocycle binding was tested by injecting varying concentrations of the macrocycle at a flow rate of 30 μl min^−1. Binding was quantified by a single-cycle kinetics method. To assess whether macrocycles and hHGF interacted with human, mouse and canine Met, each biotinylated macrocycle or hHGF was immobilized to a surface density of 200–500 RUs (for biotinylated macrocycles) or ~2,200 (for biotinylated hHGF) RUs on a CAP sensor chip using a Biotin CAPture Kit (GE Healthcare), following the standard protocol. Met binding was tested by injecting varying concentrations of the macrocycle at 30 μl min^−1 and quantifying by a single-cycle kinetics method. All data were fitted to the standard 1:1 binding model.
# Met (Y1234/1235) = target: T2, Met (Y1234/1235) (Homo sapiens, UniProt P08581); test: Cell-based phospho-Met ELISA; settings: EHMES-1 cells
# T2 construct: endogenous in cells; host or cells: EHMES-1
# Method: EHMES-1 cells (2 × 10^4 cells per well) were seeded in a 96-well black μClear-plate (Greiner Bio-One). After 24 h, the cells were stimulated with hHGF or dimeric macrocycle in RPMI1640 medium supplemented with 10% FBS for 10 min. The cells were washed with ice-cold PBS, fixed with 4% paraformaldehyde (PFA) in PBS for 30 min and washed three times with PBS. The cells were blocked with 5% goat serum, 0.02% Triton X-100 in PBS for 30 min and then incubated for 12 h in phospho-Met (Tyr1234/1235) (D26) XP rabbit mAb diluted 1:1,000 in 1% goat serum in PBS at 4 °C. The cells were washed three times with PBS and incubated for 1 h in HRP-conjugated anti-rabbit goat antibody diluted 1:1,000 in 1% goat serum in PBS. Following incubation, the cells were washed four times with PBS. Chemiluminescence was developed with ImmunoStar LD reagent (Wako) and measured by ARVO MX (Perkin Elmer). Relative Met phosphorylation was calculated as (Chemiluminescence unit of sample−chemiluminescence unit of mock control)/(chemiluminescence unit of 1.3 nM hHGF−chemiluminescence unit of mock control).
# human Met ectodomain [2] = target: T1, human Met ectodomain; test: SPR with biotinylated macrocycle or hHGF immobilized, human Met ectodomain injected; assay type: binding; settings: ligand immobilized on streptavidin sensor chip
# Method: as §1
# (§2) Supplementary Figure 4. SPR sensorgrams of human (blue), murine (red) and […]
# (§3) Measured curves are shown in blue, red and green, and fitted curves are shown in black. […]
# murine Met ectodomain = target: T3, murine Met ectodomain (Mus musculus, UniProt P16056); test: SPR with biotinylated macrocycle or hHGF immobilized, murine Met ectodomain injected; assay type: binding; settings: ligand immobilized on streptavidin sensor chip
# T3 construct: murine Met ectodomain-Fc chimera proteins; purchased Sino Biological Inc
# Method: as §1, §2, §3
# canine Met ectodomain = target: T4, canine Met ectodomain (Canis lupus familiaris, UniProt Q75ZY9); test: SPR with biotinylated macrocycle or hHGF immobilized, canine Met ectodomain injected; assay type: binding; settings: ligand immobilized on streptavidin sensor chip
# T4 construct: canine Met ectodomain were purchased from Sino Biological Inc; purchased Sino Biological Inc
# Method: as §1, §2, §3
# [3] = system: Met, Gab1, Akt and Erk1/2; test: Western blotting of Met and downstream signalling proteins; assay type: cell-based, human; settings: starved EHMES-1 cells, hHGF 2 nM or dimers 100 nM, 10 min
# Method: (§4) EHMES-1 cells were cultured in a six-well plate until they were 80%–90% confluent. After starvation for 6 h, the cells were stimulated with 2 nM hHGF or with 100 nM aML5-PEG3, aMD4-PEG11, aMD5-PEG11 or aMsD4-C6 for 10 min. Cells were then lysed with 200 μl of lysis buffer 17 (R&D Systems) containing 1 × Complete protease inhibitor cocktail (Roche). Lysates were analysed by SDS–PAGE analysis with 10% polyacrylamide gel and standard western blotting. The respective primary antibodies and HRP-conjugated secondary antibodies were diluted 1:2,000 in Can Get Signal Solution 1 (TOYOBO) and 1:5,000 in Can Get Signal Solution 2 (TOYOBO), respectively. Chemiluminescent signals were developed with Luminata Forte HRP substrate (Merck Millipore) and observed using an ImageQuant LAS 350 machine (GE Healthcare). Relative phosphorylation efficiency was evaluated by the band intensity and statistical differences between stimulants were calculated using Student’s t-test. The phospho-RTK array was performed using Proteome Profiler Human Phospho-RTK Array Kit (R&D Systems). For stimulation of cells with FBS, cells were cultured in the presence of 10% FBS, with or without excess concentrations of hHGF (30 nM) or aML5-PEG3 (3,000 nM) for 10 min. Cell lysates of stimulated EHMES-1 cells were analysed according to the manufacturer’s instructions.
# [4] = system: 49 representative human RTKs; test: Phospho-RTK array; assay type: cell-based
# Method: as §4
# HCC827 cells = test: Cell growth assay in gefitinib-treated HCC827 cells; assay type: cell-based, human; settings: HCC827 cells with 1 µM gefitinib
# Method: Cells were plated at 2,500 cells per well in 96-well plates for calcein-AM staining or 7,500 cells per well in 48-well plates for cell counting. For HUVEC and HDMEC, plates were pre-coated with gelatin (Difco Laboratories, 0.1% for 1 h at 37 °C). After 3 h, the medium was removed and replaced with medium as follows: HUVEC and HDMEC were cultured in endothelial cell basal medium supplemented with 2% (HUVEC) or 1% (HDMEC) FCS, and 90 μg ml^−1 heparin, with or without hHGF or dimeric macrocycle. RPTEC were cultured in REBM supplemented with 0.5% FBS and 2.4 mM L-alanyl-L-glutamine, with or without hHGF or dimeric macrocycle. NHEK was cultured in KBM2 supplemented with 0.4% bovine pituitary extract, 0.33 μg ml^−1 hydrocortisone, 0.39 μg ml^−1 epinephrine, 10 μg ml^−1 transferrin and 1.8 mM CaCl2, with or without hHGF or dimeric macrocycle. […] The culture media (with or without hHGF or dimeric macrocycle) were replaced every second day. After 6 days, cells were stained with 5 μg ml^−1 calcein-AM (Dojindo) at 37 °C for 15 min. Fluorescence of living cells was detected by ARVO MX. Alternatively, cells were harvested with trypsin–EDTA solution, suspended in culture medium and the cell number was determined using a Countess Automated Cell Counter (Life Technologies). Statistical differences between stimulants were calculated using Student’s t-test.
# HPAEC = test: DNA synthesis (BrdU incorporation); assay type: cell-based, human; settings: 30 nM dimeric macrocycle or 0.25 nM hHGF, 20 h
# Method: Normal HPAECs were maintained in MCDB 131 medium supplemented with 5% FBS and 1.2 nM of basic fibroblast growth factor. Cells were serum starved for 24 h and then stimulated with 30 nM dimeric macrocycle or 0.25 nM hHGF in the presence of 5% FBS and 10 μM BrdU for 20 h. The cells were fixed in 4% PFA in PBS for 30 min, permeabilized with 0.2% Triton X-100 in PBS for 5 min, treated with 2 M HCl for 20 min and neutralized with 0.1 M sodium tetraborate for 5 min. The treated, neutralized cells were incubated with anti-BrdU primary antibody (BD Biosciences) for 2 h and subsequently stained with a fluorescently labelled secondary antibody for 30 min. The nuclei were stained with DAPI. BrdU incorporation was analysed by Biozero fluorescence microscopy (Keyence).
# RPTEC = test: Branching morphogenesis assay in RPTEC; assay type: cell-based, human; settings: RPTEC in collagen gels, 8 days
# Method: RPTEC (2 × 10^4 cells) were suspended in 400 μl Cellmatrix type IA collagen solution (Nitta Gelatin) in a 48-well plate and allowed to gel for 60 min at 37 °C, according to the manufacturer’s instructions. After gelation, 500 μl REBM supplemented with 0.5% FBS and 2.4 mM L-alanyl-L-glutamine, with or without hHGF (0.42 nM, 1.3 nM) or macrocycles (30 nM, 100 nM), were added to each well. Cells were cultured for 8 days, replacing the culture medium (with or without hHGF or dimeric macrocycle) every second day. HuCCT1 (1 × 10^4 cells) were suspended in 400 μl Cellmatrix type IA collagen solution in a 48-well plate and were allowed to gel for 60 min at 37 °C. After gelation, 500 μl RPMI1640 medium supplemented with 10% FBS, with or without 0.38 nM hHGF or 20 nM dimeric macrocycle, was added to each well. Cells were cultured for 8 days, replacing the culture medium (with or without hHGF or dimeric macrocycle) every second day. TAC-2 cells (4 × 10^3 cells) were suspended in 400 μl type I collagen solution (BD Biosciences) in a 48-well plate. After gelation, 500 μl DMEM supplemented with 10% FBS, with or without hHGF or dimeric macrocycle, was added to each well. Cells were cultured for 7 days, replacing the culture medium (with or without hHGF or dimeric macrocycle) every second day.
# [5] = target: T5, Recombinant human Met ectodomain-Fc chimera protein (human, UniProt P08581 25-932); test: SPR; Biacore T200; human Met ectodomain-Fc captured (1,200-1,600 RU) on a CM5 chip with a human antibody capture kit; monomeric macrocycle or linear peptide injected at 30 µl/min, single-cycle kinetics; HBS EP+ (10 mM Hepes pH 7.4, 150 mM NaCl, 3 mM EDTA, 0.05% Surfactant P20) with 0.1% DMSO; 1:1 binding model; settings: both partners purified
# T5 construct: Hepatocyte growth factor receptor (Met), human, ectodomain; Captured through its Fc with a human antibody capture kit in a1 and a2; injected as analyte in a3; also called human Met extracellular domain; source: bought: Sino Biological Inc
# [6] = 10% FBS, hHGF 30 nM or aML5-PEG3 3,000 nM
# T5 sequence (P08581 25-932, stated change not applied): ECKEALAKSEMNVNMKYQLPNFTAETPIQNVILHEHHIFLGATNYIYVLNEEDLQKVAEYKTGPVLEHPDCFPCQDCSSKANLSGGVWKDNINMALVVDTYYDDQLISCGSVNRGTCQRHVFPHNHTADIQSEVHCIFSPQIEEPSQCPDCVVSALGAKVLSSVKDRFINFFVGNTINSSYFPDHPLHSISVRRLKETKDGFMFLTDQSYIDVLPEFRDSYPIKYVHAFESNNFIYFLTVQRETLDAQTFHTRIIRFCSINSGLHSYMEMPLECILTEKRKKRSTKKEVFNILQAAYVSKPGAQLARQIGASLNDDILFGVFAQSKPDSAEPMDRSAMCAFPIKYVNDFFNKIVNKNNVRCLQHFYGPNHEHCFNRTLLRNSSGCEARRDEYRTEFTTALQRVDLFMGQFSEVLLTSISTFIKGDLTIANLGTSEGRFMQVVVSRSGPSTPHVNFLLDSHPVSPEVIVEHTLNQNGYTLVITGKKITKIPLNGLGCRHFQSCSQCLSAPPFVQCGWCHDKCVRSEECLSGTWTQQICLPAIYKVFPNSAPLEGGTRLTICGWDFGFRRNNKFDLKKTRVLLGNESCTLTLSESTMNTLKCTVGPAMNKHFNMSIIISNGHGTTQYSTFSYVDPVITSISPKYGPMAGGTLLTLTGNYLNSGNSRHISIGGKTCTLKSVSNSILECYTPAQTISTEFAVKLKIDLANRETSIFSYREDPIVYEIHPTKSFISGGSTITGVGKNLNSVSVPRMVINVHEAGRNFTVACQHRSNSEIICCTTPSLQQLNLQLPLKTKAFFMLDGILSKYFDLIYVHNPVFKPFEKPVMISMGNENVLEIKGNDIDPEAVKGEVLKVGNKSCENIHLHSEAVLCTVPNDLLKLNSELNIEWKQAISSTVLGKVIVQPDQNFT
# T1 sequence (P08581 25-932 limits assumed): as the sequence (P08581 25-932, stated change not applied) above
# T2 sequence (P08581 308-1390 limits assumed): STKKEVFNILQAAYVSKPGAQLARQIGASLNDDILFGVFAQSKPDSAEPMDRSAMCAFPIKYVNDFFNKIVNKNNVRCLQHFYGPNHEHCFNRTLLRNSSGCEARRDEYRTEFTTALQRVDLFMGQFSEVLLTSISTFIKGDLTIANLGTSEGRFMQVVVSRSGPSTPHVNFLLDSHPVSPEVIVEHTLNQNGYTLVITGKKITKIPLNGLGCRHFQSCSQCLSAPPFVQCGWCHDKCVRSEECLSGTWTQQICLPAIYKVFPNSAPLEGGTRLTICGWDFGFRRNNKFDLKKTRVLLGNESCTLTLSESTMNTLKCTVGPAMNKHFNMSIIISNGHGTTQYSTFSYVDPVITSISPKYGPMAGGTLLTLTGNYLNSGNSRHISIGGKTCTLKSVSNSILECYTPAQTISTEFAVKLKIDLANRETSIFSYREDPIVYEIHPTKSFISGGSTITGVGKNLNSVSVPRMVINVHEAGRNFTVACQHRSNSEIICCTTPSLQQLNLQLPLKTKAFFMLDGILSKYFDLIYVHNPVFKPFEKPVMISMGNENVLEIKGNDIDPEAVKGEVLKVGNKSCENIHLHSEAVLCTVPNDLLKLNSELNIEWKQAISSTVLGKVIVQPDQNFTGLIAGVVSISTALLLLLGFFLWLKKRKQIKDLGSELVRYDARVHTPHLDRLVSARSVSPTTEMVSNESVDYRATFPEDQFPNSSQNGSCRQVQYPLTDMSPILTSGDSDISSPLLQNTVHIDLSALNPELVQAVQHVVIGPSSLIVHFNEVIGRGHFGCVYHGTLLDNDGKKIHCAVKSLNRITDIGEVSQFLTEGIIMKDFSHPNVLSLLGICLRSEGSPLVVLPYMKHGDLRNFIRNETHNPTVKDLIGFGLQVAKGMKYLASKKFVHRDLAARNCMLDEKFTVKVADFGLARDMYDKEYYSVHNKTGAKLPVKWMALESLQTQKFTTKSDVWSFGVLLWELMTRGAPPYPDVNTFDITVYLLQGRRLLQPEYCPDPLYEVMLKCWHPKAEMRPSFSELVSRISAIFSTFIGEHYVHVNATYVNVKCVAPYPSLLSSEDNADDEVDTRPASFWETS
# T2 sequence (P08581 25-307 limits assumed): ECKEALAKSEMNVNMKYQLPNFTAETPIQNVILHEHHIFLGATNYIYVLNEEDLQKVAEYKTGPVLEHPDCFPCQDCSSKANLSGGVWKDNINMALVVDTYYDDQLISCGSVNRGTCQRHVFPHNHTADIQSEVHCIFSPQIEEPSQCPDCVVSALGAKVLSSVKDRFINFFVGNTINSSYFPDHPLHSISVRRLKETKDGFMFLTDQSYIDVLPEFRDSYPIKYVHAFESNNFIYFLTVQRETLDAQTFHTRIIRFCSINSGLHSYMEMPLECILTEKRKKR
# T3 sequence (P16056 25-931 limits assumed): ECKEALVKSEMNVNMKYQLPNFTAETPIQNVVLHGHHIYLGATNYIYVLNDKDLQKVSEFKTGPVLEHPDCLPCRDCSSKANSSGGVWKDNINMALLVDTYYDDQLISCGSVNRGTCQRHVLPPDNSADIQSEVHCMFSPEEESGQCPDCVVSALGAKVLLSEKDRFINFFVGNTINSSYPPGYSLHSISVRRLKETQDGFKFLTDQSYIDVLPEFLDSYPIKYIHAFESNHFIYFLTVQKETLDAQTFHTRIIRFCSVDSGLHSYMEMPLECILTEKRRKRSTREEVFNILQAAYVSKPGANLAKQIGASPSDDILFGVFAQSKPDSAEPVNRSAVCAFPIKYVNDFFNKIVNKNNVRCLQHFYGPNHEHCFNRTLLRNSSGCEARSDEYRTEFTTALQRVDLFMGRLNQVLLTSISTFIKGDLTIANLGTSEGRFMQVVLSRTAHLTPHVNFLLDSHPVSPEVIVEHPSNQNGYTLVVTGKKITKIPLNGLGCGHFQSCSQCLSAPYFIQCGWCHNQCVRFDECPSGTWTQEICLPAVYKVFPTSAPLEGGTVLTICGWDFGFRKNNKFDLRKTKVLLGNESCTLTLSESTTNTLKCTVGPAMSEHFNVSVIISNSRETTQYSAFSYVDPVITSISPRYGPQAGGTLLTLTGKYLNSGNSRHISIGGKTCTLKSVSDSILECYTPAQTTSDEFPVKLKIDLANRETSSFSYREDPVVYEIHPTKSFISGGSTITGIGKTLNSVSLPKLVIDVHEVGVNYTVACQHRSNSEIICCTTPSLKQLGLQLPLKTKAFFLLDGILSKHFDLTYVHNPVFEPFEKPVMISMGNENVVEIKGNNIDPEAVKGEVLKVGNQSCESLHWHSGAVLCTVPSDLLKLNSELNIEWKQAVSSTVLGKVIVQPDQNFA
# T4 sequence (Q75ZY9 25-935 limits assumed): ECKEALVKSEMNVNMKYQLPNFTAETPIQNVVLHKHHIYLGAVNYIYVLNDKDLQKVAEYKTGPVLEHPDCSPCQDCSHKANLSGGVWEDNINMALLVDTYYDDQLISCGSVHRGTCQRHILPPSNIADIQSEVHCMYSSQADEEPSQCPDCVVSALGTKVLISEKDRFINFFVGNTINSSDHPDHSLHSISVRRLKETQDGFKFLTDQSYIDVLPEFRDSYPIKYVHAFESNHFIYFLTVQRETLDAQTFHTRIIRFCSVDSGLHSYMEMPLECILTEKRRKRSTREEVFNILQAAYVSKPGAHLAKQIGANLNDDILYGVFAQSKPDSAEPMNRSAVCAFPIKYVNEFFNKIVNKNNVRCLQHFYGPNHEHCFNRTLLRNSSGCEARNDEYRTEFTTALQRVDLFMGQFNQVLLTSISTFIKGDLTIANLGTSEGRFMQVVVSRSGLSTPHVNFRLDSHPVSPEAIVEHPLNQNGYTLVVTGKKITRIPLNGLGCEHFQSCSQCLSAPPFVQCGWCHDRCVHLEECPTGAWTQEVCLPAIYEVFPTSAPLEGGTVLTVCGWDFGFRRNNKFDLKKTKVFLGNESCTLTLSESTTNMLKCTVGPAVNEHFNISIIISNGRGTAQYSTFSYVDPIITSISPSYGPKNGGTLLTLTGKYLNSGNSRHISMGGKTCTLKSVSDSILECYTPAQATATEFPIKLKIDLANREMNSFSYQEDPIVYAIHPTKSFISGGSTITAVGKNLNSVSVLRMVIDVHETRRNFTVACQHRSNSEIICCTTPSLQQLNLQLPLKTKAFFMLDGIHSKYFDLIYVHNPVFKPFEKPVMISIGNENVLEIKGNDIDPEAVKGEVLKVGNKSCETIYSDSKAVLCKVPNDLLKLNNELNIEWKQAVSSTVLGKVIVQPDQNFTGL
molecule,measurement,setting,value
"Cc1[nH]c(/C=C2\C(=O)Nc3ccc(S(=O)(=O)N(C)c4cccc(Cl)c4)cc32)c(C)c1C(=O)N1CCN(C)CC1 [SU11274, reference compound]",effect of Met inhibitor on c-Ret phosphorylation,c-Ret; EHMES-1 cells stimulated with 1 nM hHGF or 100 nM aML5-PEG3,decreased c-Ret phosphorylation
aML5-Lin: linear counterpart of aML5 (Ac-YISWNEFNSPNWRFITAG-NH2),KD relative to parental peptides,human Met ectodomain [1],approximately two orders of magnitude higher
"biotinylated hHGF: hHGF biotinylated using NH2-Reactive Biotin, 1.5 biotin per hHGF",Met Y1234/1235 phosphorylation (agonist activity),"Met (Y1234/1235); 10 min stimulation, 10% FBS",equivalent to that of hHGF
"hHGF: human recombinant hepatocyte growth factor, positive control",binding to human Met ectodomain,human Met ectodomain [2],binding of the immobilized hHGF to all three of the ectodomains
same,binding to murine Met ectodomain,murine Met ectodomain,binding of the immobilized hHGF to all three of the ectodomains
same,binding to canine Met ectodomain,canine Met ectodomain,binding of the immobilized hHGF to all three of the ectodomains
same,concentration above which Met phosphorylation level decreased (bell-shaped response),Met (Y1234/1235),above 5 nM
same,"phosphorylation of Met and downstream proteins (Gab1, Akt, Erk1/2)",[3],Met was phosphorylated at the Y1234/1235 and Y1349 residues
same,Met phosphorylation at excess concentration,[4]; [6],strongly induced Met phosphorylation
same,effect on RTKs phosphorylated in FBS-containing media,[4]; [6],neither affected the phosphorylation level of the RTKs
same,RTK phosphorylation selectivity,"[4]; EHMES-1 cells, 100 nM dimeric macrocycles or 2 nM hHGF, 10 min, without FBS",specifically phosphorylated Met
same,c-Ret phosphorylation,"c-Ret; EHMES-1 cells, FBS-containing media",induced c-Ret phosphorylation in a dose-dependent manner
same,restoration of proliferation,HCC827 cells,restored in a dose-dependent manner
same,DNA synthesis (BrdU incorporation),HPAEC,promoted DNA synthesis
same,branched tubule formation,RPTEC,developed branched tubules
B1,Kd,[5],19 nM
same,koff,[5],0.0081 s⁻¹
same,kon,[5],430000 M⁻¹ s⁻¹
B2,Kd,[5],1300 nM
same,koff,[5],0.017 s⁻¹
same,kon,[5],13000 M⁻¹ s⁻¹
